Laboratory results published in the supplement of paper PMC10724198.
± gives the standard deviation of the averaged measurements.

Test system: Saccharomyces cerevisiae
Assay: protein stability index of tFT-peptide fusion (C-terminal peptide) (PSI (0-1 scale)); higher = more stable (slower turnover)
Conditions: temperature: 30 C
Experimental: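 MPS profiling in S. cerevisiae of the yeast C-terminome library: the last 12 aa of each annotated ORF are fused to the C-terminus of a sfGFP-mCherry timer, after a GGGS linker. Cells are FACS-sorted into 8 mCherry/sfGFP bins and deep-sequenced. PSI runs from 0 (unstable) to 1 (stable); wild type and das1Δ backgrounds, two technical replicates each.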

[1] = genetic background: das1 deletion

Sequence | protein stability index [1] | protein stability index (genetic background: wild type)
DDGTKNFIFKNK [ECM23 C-terminal 12 aa] | 0.7072 ± 0.0034 | 0.706 ± 0.031
DDNDDGDDDDDW [MYO3 C-terminal 12 aa] | 0.68701 ± 0.00044 | 0.7087 ± 0.0034
DDNDDSDEREIW [UBR1 C-terminal 12 aa] | 0.699 ± 0.031 | 0.71 ± 0.029
DDNDTSAYYEDN [GSY1 C-terminal 12 aa] | 0.689 ± 0.0083 | 0.803 ± 0.073
DEASGTPDEDML [GRR1 C-terminal 12 aa] | 0.6796 ± 0.0046 | 0.693 ± 0.034
DEERPSKKPKVE [POB3 C-terminal 12 aa] | 0.7314 ± 0.0054 | 0.745 ± 0.02
DEGVSLVFEVPN [SQT1 C-terminal 12 aa] | 0.683 ± 0.02 | 0.677 ± 0.012
DENRHSIRIPFN [USB1 C-terminal 12 aa] | 0.704 ± 0.015 | 0.688 ± 0.013
DFPHEAVVREML [TVP18 C-terminal 12 aa] | 0.7167 ± 0.0023 | 0.6914 ± 0.0026
DFQNCFPRQRIL [DFP2 C-terminal 12 aa] | 0.7035 ± 0.0037 | 0.2848 ± 0.0028
DFVDMYQTEHSG [MTF1 C-terminal 12 aa] | 0.712 ± 0.0088 | 0.7301 ± 0.0034
DFVYNEEDFEKL [NOT5 C-terminal 12 aa] | 0.718 ± 0.015 | 0.681 ± 0.014
DGKSVNKYGAKK [GUS1 C-terminal 12 aa] | 0.6798 ± 0.0063 | 0.699 ± 0.029
DGKVIYELEDKE [GET3 C-terminal 12 aa] | 0.727 ± 0.021 | 0.6753 ± 0.0058
DGSGKYFLKHDS [KTR2 C-terminal 12 aa] | 0.706 ± 0.0039 | 0.708 ± 0.04
DHKVGAQVSYKY [MAD2 C-terminal 12 aa] | 0.71 ± 0.0075 | 0.675 ± 0.017
DIGKKKYSHSSN [RER1 C-terminal 12 aa] | 0.673 ± 0.043 | 0.686 ± 0.049

Sequence | protein stability index [1] | protein stability index (genetic background: wild type)
DKEQQQQQQQQP [ZDS1 C-terminal 12 aa] | 0.702 ± 0.0076 | 0.708 ± 0.032
DKEVLHVKADSL [FTR1 C-terminal 12 aa] | 0.7131 ± 0.0063 | 0.7 ± 0.047
DLAYQYVRALEL [SRB2 C-terminal 12 aa] | 0.683 ± 0.013 | 0.673 ± 0.0094
DLDLDLFDPDDF [MED4 C-terminal 12 aa] | 0.7055 ± 0.0036 | 0.684 ± 0.044
DLSSFFNYRSVQ [SPH1 C-terminal 12 aa] | 0.75 ± 0.015 | 0.7374 ± 0.0021
DLSTRIYSLAYE [ELP2 C-terminal 12 aa] | 0.71 ± 0.051 | 0.665 ± 0.011
DLYTEEFLKEGK [PRP39 C-terminal 12 aa] | 0.683 ± 0.035 | 0.6685 ± 0.0064
DNFNSAPSYFSK [MIG3 C-terminal 12 aa] | 0.6975 ± 0.0012 | 0.682 ± 0.052
DNGRIIITGIPN [ECM5 C-terminal 12 aa] | 0.681 ± 0.024 | 0.675 ± 0.033
DNYLKYIKALLL [MSH2 C-terminal 12 aa] | 0.71 ± 0.029 | 0.445 ± 0.026
DPERQNNSNFYN [SMC6 C-terminal 12 aa] | 0.702 ± 0.052 | 0.686 ± 0.026
DPFLYSCSRVAF [YDL196W C-terminal 12 aa] | 0.729 ± 0.038 | 0.702 ± 0.012
DQIYWFNHFSNV [AIM2 C-terminal 12 aa] | 0.7141 ± 0.0021 | 0.696 ± 0.027
DRKRRKLLWYQA [MRPL20 C-terminal 12 aa] | 0.718 ± 0.045 | 0.2489 ± 0.00046
DSDNAAPLHDEL [KRE5 C-terminal 12 aa] | 0.687 ± 0.017 | 0.685 ± 0.048
DSEDDNDTSSES [PRP38 C-terminal 12 aa] | 0.682 ± 0.026 | 0.6733 ± 0.0012
DSMRGNSRNNMF [EBS1 C-terminal 12 aa] | 0.7083 ± 0.0062 | 0.717 ± 0.021
